These results are taken from patent US20210024651A1.

What is called Kd is the equilibrium constant for the complex coming apart.

Test [1] deals with moFcRn. The test is described as follows: BLI. In general terms: In BLI a coated tip is dipped into the sample, and binding shifts an interference pattern.
Test [2] addresses moFcgRIV. The test can be described thus: BLI.
Test [3] addresses moFcgRIII. The test is described as follows: -; reported.
The target of test [4] is moFcgRIIb. The test is described as follows: -; reported.
In test [5] the target is moFcRn. The test can be described thus: -; reported.
In test [6] the target is moFcgRIV. The test is described as follows: -; reported.

In the case of LJM716 hIgG1, the Kd in test [1] turned out to be 12.8 nM; in test [2], 701 nM.

Seribantumab hIgG2 displayed a dissociation constant Kd in test [1] of 6.69 nM.

With hIgG1, the Kd came to 9300 nM in test [3], 1100 nM in test [4], 72 nM in test [5] and 280 nM in test [6].

For hIgG2, the figures for the Kd in test [3], in test [4] and in test [5] were 9700 nM, 7900 nM and 63 nM, respectively.

Take hIgG3: the Kd came out at 1300 nM in test [3], 700 nM in test [4], 230 nM in test [5] and 170 nM in test [6].

On to hIgG4, for which the Kd in test [3] was 21000 nM; in test [4], 11000 nM; in test [5], 116 nM; in test [6] it was 26000 nM.

For mIgG1, the Kd in test [3] worked out at 3200 nM; in test [4] it was 301 nM; in test [5] it was 1160 nM.

On to mIgG2a, for which the Kd came to 1460 nM in test [3], 2390 nM in test [4], 490 nM in test [5] and 34.5 nM in test [6].

Regarding mIgG2b, the Kd in test [3] was found to be 1560 nM; in test [4], 448 nM; in test [5], 545 nM; in test [6], 59 nM.

In test [5], mIgG3 registered a dissociation constant Kd of 140 nM. That is a sub-micromolar value.
